{"source": "paper PMC4977002", "experiment_in_all_cases": "SPR", "key": {"[1]": {"target": "h9C12 I253A (mouse | human)"}, "[2]": {"target": "humanized 9C12 (h9C12), wild type, human IgG1/kappa (mouse | human)"}, "[3]": {"target": "h9C12 H310A (mouse | human)"}, "[4]": {"target": "h9C12 N434D (mouse | human)"}, "[5]": {"target": "h9C12 H433K (mouse | human)"}, "[6]": {"target": "h9C12 P329A (mouse | human)"}, "[7]": {"target": "h9C12 N434A (mouse | human)"}, "[8]": {"target": "h9C12 L235A (mouse | human)"}, "[9]": {"target": "h9C12 H435A (mouse | human)"}, "[10]": {"target": "h9C12 N434S (mouse | human)"}}, "data": [{"substance": "Recombinant human TRIM21 PRYSPRY (from UniProt P19474 287-465) (domain or fragment)", "values": [{"measurement": "Kd", "setting": "[1]", "value": 565, "unit": "nM"}, {"measurement": "koff", "setting": "[1]", "value": 0.177, "unit": "s⁻¹"}, {"measurement": "Kd", "setting": "[2]", "value": 212, "unit": "nM"}, {"measurement": "Kd", "setting": "[3]", "value": 262, "unit": "nM"}, {"measurement": "koff", "setting": "[3]", "value": 0.086, "unit": "s⁻¹"}, {"measurement": "Kd", "setting": "[4]", "value": 4.5, "unit": "µM"}, {"measurement": "Kd", "setting": "[5]", "value": 21.5, "unit": "µM"}, {"measurement": "Kd", "setting": "[6]", "value": 220, "unit": "nM"}, {"measurement": "koff", "setting": "[6]", "value": 0.062, "unit": "s⁻¹"}, {"measurement": "Kd", "setting": "[7]", "value": 2000, "unit": "nM"}, {"measurement": "Kd", "setting": "[8]", "value": 226, "unit": "nM"}, {"measurement": "koff", "setting": "[8]", "value": 0.062, "unit": "s⁻¹"}, {"measurement": "Kd", "setting": "[9]", "value": 5.53, "unit": "µM"}, {"measurement": "Kd", "setting": "[10]", "value": 3.6, "unit": "µM"}]}]}
